Reference: publication PMC6508825, “Rice plants have three homologs of glutathione synthetase genes, one of which, OsGS2, codes for hydroxymethyl‐glutathione synthetase” (Plant Direct, 2019)

How the values were obtained:
Settings in all cases: 1 mmol/L gamma-glutamylcysteine, 2 mmol/L ATP, 20 mmol/L MgCl2, 50 mmol/L KCl, 1 mmol/L DTT, Tris-HCl pH 8.0, 30 °C, apparent, 0.2-10 mmol/L amino acid
[1] = substrate: N[C@@H](CO)C(=O)O; test: purified protein
[2] = substrate: NCC(=O)O; test: HPLC with fluorescence detection of monobromobimane-derivatized thiol peptide product, Michaelis-Menten fit; type: biochemical, Oryza sativa
Description: HPLC with fluorescence detection of monobromobimane-derivatized thiol peptide product, Michaelis-Menten fit on MBP-OsGS2

[3] = substrate: NCC(=O)O; test: as above; type: biochemical, Oryza sativa; remark: listed apart in the source
Description: HPLC with fluorescence detection of monobromobimane-derivatized thiol peptide product, Michaelis-Menten fit on MBP-OsGS1

[4] = substrate: NCC(=O)O; test: as above; type: biochemical, Oryza sativa; remark: listed apart in the source
Description: HPLC with fluorescence detection of monobromobimane-derivatized thiol peptide product, Michaelis-Menten fit on MBP-OsGS3

B1: MBP-OsGS2 (Oryza sativa Japonica Group) (protein)
chain: MAAAAARSGAHPPSFASSLGRCRVLPVVVVRRPGGAARPSPLLAPARCAAAVGTAAPKVEGGGRRSSEQGQLAVAPARLVDELVEEALVWSSQHGLVVGDKNHPRSGKAPGVGLLHAPFALLPMSFSKVYWDQAVELAPLFNELVDRVSLDGDFLQETLARTKEVDSFTGRLLDIHAKMMKLNKKEDVRLGLTRSDYMIDGATDQLLQVELNTISTSSNGLACGVCELHRNLIRQHERELGLDPESVVGNTAIAQHAEALAGAWAEFNNQSSVVLVVVQPEERYMYDQYWITVALREMYGVTTIRKTMAAIDAEGELRPDGTLTIDGLPVAVVYFRAGYTPNDYPSEAEWRARLLIECSSAIKCPSIAHHLVGTKKIQQELAKENVLERFLDNKADIEKVRKCFAGLWSLENDSIVMSAIESPELFVLKPQREGGGNNIYGDNLRETLISLKKDGSNELAAYILMQRIFPPASLCYLVRDGTCIRENAVSEFGIFGAYLRNKDRVIINDQCGYLMRTKAASLNEGGVVAGYAFLNSVFLT
notes: full-length ORF, MBP fusion (pMAL-c5X), expressed in E. coli NEB Express, amylose resin purified; MBP kept
- Km [1]: 2640 ± 50 µM
- Vmax [1]: 0.524 µmol/min/mg
- Km [2]: 19300 ± 1100 µM
- Vmax [2]: 0.459 µmol/min/mg

B2: MBP-OsGS1 (Oryza sativa Japonica Group) (protein)
chain: MSSYVTTPHHHHHHGCCSGSRRLQAPAPPARPRLVVAAAARHVALPPRRAVASRAMSAEAPLGVAPAAAEEEMAAVVDEMAEEAAVWCAVHGLVVGDRAEPRSGTIPGVGLVHAPFALLPTRFPASFWKQARELAPIFNDLVDRVSLDGEFLQDSLSRTRQVDDFTSRLLDIHAKMMEVNKEEDIRLGLHRSDYMLDSGTNSLLQIELNTISSSFPGLSSLVSELHRTLLNRHGKVLGLDSKRIPQNWAATQFAEALSMAWTEFNNKSAVIMMVVQPEERNMYDQYWLINHLKESHGVKTIRKTLAQVEAEGQVLPDGTLVVDGQTVSVVYFRAGYSPNDYPSEAEWRARLLMEQSSAIKCPSISYHLVGTKKIQQELAKPNILERFLNNKEDIAKLRKCFAGLWSLDNEEIVKTAIEKPDLFVLKPQREGGGNNIYGYDLRETLVRLQKEQGEALAAYILMQRIFPRASLTHLVQGGVCFEDLTISELGIFGAYLRNKDKVVLNNQCGYLMRTKVSSSNEGGVAAGFAVLDSILLTDEW
notes: as for B1
- Km [3]: 1280 ± 100 µM
- Vmax [3]: 0.759 µmol/min/mg

B3: MBP-OsGS3 (Oryza sativa Japonica Group) (protein)
chain: MSAAAEGRPPAAAAAGEMVREATAWCALHGLVVGDRADPRSGTVPGVGLVHAPFSLLPTHLPESHWRQACELAPIFNELVDRVSLDGDFLQDSLSKTKQVDDFTSRLLEIHRKMMEINKEENIRLGLHRSDYMLDSETNSLLQIELNTISASFPGLGSLVSELHRTLIDQYGHLFCLDSKRVPGNEASSQFAKALARAWDEFNVDSAVIMMIVQPEERNMYDQYWLAKHLKESHGITTIRKTLSEVEAEGHVLPDGTLVIDGKTVSVVYFRAGYTPNDYPSEAEWAARLLLEQSSAVKCPSISYHLVGTKKIQQELARPNVLERFLENKEEITKIRKCFAGLWSLDDEEIVKSAIQKPELFVLKPQREGGGNNIYGIDVRETLIRLQKEGGDALAAYILMQRIFPKASLSNLVRGGVCHEALTISELGIYGAYLRNNDKVVMNEQSGYLMRTKVSSSDEGGVAAGFAVLDSLYLTDKAM
notes: MBP kept
- Km [4]: 408 ± 5 µM
- Vmax [4]: 6.6 µmol/min/mg
